For assay [1], the target named is T1, mCD40 (Mus musculus, UniProt P27512).
T1 sequence (P27512 20-289): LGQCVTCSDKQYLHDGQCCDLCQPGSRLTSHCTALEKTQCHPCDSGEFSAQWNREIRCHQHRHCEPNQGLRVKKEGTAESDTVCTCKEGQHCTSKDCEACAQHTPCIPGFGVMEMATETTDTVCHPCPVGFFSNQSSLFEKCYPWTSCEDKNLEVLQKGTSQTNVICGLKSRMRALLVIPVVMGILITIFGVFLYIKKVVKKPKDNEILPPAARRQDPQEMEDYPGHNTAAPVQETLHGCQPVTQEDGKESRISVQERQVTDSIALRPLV
In words: CD40 ELISA binding assay of supernatants. The conditions noted are these: clarified supernatant. In general terms: An ELISA detects its analyte on a solid surface through an enzyme-linked reagent.

Assay [2] concerns anti-mCD40L antibody. In words: CD40 ELISA binding assay of supernatants, detection by antibody. The following applies: clarified supernatant.
Assay [3] is described as follows: CD40 ELISA binding assay, control coatings. The conditions noted are these: clarified supernatant.
Assay [4] deals with T2, CD47 on mouse CT26 cells (Mus musculus, UniProt Q61735).
T2 construct: CT26 is a mouse colon carcinoma cell line which expresses CD47 on its cell surface; endogenous in cells; host or cells: CT26 mouse colon carcinoma cells
T2 sequence (Q61735 19-303): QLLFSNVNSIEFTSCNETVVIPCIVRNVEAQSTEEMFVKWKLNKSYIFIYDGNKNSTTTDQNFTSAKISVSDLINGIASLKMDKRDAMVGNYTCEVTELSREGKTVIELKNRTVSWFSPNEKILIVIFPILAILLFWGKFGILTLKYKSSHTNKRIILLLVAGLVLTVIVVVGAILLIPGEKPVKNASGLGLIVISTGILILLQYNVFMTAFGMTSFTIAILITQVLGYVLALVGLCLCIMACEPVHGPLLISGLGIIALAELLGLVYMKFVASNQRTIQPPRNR
Briefly: flow cytometric analysis of CD47 expressing CT26 cells incubated with strain supernatants. The class given is binding. An excerpt:
FIG. 29 depicts a diagram of a flow cytometric analysis of CT26 cells.
FIG. 30 depicts a diagram of a flow cytometric analysis of CT26 cells.

The target in assay [5] is T3, mPD1 on the surface of EL4 cells (Mus musculus, UniProt Q02242).
T3 construct: EL4 are a mouse lymphoma cell line which expresses PD1 on its cell surface; endogenous in cells; host or cells: EL4 mouse lymphoma cells
T3 sequence (Q02242 25-288): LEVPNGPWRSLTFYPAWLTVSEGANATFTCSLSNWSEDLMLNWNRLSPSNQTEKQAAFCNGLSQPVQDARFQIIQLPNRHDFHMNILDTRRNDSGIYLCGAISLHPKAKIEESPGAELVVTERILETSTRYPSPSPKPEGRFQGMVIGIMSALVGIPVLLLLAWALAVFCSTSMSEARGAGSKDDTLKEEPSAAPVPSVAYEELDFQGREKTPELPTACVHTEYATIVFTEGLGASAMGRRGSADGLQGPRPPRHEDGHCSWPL
Briefly: PDL1 competition assay on EL4 cells (flow cytometry). It counts as cell-based. The following applies: PDL1 0, 5, 10 and 30 μg/mL. As for the experimental part:
Next, a competition assay was conducted to determine whether PDL1 could inhibit the binding of the anti-PD1-scFv secreted by the genetically engineered bacteria from binding to murine PD1. EL4 cells were grown and flow cytometry protocol was conducted essentially as described above except that PDL1 was added at various concentrations (0, 5, 10, and 30 μg/mL) during the incubation of the secreted anti-PD1-scFv-V5. Rat-IgG was used as a negative control of secreted scFv.
On the technique in general: A flow cytometer gives signals particle by particle.

The target of assay [6] is T4, mPD1 (Mus musculus, UniProt Q02242).
T4 construct: purchased Rndsystems
T4 sequence (Q02242 25-288): T3 sequence (Q02242 25-288)
In words: ELISA binding assay of bacterial extracts (J43-scFv). The conditions noted are these: α-V5-HRP. As to the method: (§1) E. coli comprising either tet-inducible J43-Anti-PD1-scFv-V5 or wild type controls were grown overnight in LB medium. […] Same amount of tetracycline was added to wild type control cultures.
(§2) To determine whether the single-chain antibody purified from E. coli DH5α functionally binds to the target protein, PD1, an ELISA assay was performed.

A short description of assay [7]: ELISA binding assay of bacterial extracts (J43-scFv), control coatings. The following applies: α-V5-HRP. As to the method: as §1, §2
For assay [8], the target named is T5, PD1 on mouse EL4 cells (Mus musculus, UniProt Q02242).
T5 construct: EL4 are a mouse lymphoma cell line which expresses PD1 on its cell surface; endogenous in cells; host or cells: EL4 mouse lymphoma cells
T5 sequence (Q02242 25-288): T3 sequence (Q02242 25-288)
In words: Flow cytometry, binding of anti-PD1-scFv to EL4 cells. It counts as cell-based. As to the method: To determine whether anti-PD1-scFv expressed in E. coli binds to surface PD1 on mouse EL4 cells, flow cytometric analysis was performed using EL4 cells. EL4 are a mouse lymphoma cell line which expresses PD1 on its cell surface.
EL4 cells were grown in Dulbecco's Modified Eagle's Medium (DMEM) with 10% FBS. Cells were spun down, supernatant was aspirated, pellet was resuspended in 1 ml D-PBS, transferred into chilled assay tubes (1×10^6 cells), and washed 2-3 times in D-PBS with 0.5% BSA. Cells were resuspended in PBS with 0.5% BSA, to which the purified scFv-V5 and anti-V5-FITC antibody were added and incubated for 1 hour at room temperature. Negative control left out scFv-V5. Cells were resuspended in 0.5 ml PBS and analyzed on a flow cytometer.
EL4 are a mouse lymphoma cell line which expresses PD1 on its cell surface.
EL4 cells were grown in Dulbecco's Modified Eagle's Medium (DMEM) with 10% FBS and 1% Penicillin-Streptomycin Cells were spun down, supernatant was aspirated, pellet was resuspended in 1 ml D-PBS, transferred into chilled assay tubes (1×10^6 cells), and washed 3 times in D-PBS. Cells were resuspended in D-PBS with 0.5% BSA, to which the purified scFv-V5 and anti-V5-FITC antibody were added and incubated for 1 hour at room temperature. Negative control left out secreted J43-scFv-V5. Cells were then resuspended in 0.5 ml PBS and analyzed on a flow cytometer. Results are shown in (FIG. 20).

Assay [9] is described as follows: SIRPα/CD47 ELISA binding assay, control coatings. The conditions noted are these: supernatant.
Assay [10] deals with T6, mCD47 (Mus musculus, UniProt Q61735).
T6 sequence (Q61735 19-303): T2 sequence (Q61735 19-303)
Briefly: SIRPα/CD47 ELISA binding assay of supernatants. The conditions noted are these: supernatant.

Assay [11] concerns the target T7, murine CD47 on CT26 cells (Mus musculus, UniProt Q61735).
T7 construct: CT26 is a mouse colon carcinoma cell line which expresses CD47 on its cell surface; endogenous in cells; host or cells: CT26 mouse colon carcinoma cells
T7 sequence (Q61735 19-303): T2 sequence (Q61735 19-303)
Briefly: Competition assay on CT26 cells (flow cytometry). It counts as cell-based. The conditions noted are these: secreted FD6x2sirpα or FD6sirpαhIgG4. As to the method: Next, a competition assay was conducted to determine whether the murine SIRPα secreted by the genetically engineered bacteria could compete with the binding of a recombinant mSIRPα or an anti-CD47 antibody to murine CD47 on CT26 cells. CT26 cells were grown and flow cytometry protocol was conducted essentially as described above except that recombinant SIRPα (Rndsystems) or an anti-CD47 antibody (Biolegend) was added during the incubation of the secreted FD6×2sirpα or FD6sirpαhIgG4. FIG. 29 and FIG. 30 show the results of the competition with recombinant SIRPalpha and anti-CD47 antibody, respectively.

B1: Secreted CD40-L2: soluble form of murine CD40L secreted by SYN3367, in clarified supernatant (protein)
chain: MQRGDEDPQIAAHVVSEANSNAASVLQWAKKGYYTMKSNLVMLENGKQLTVKREGLYYVYTQVTFCSNREPSSQRPFIVGLWLKPSSGSERILLKAANTHSSSQLCEQQSVHLGGVFELQAGASVFVNVTEASQVIHRVGFSSFGLLKL
modifications: left off: small tags and cut ends
Regarding B1, the “ELISA signal, coating mCD40” value in assay [1] was determined as 0.639. The “ELISA signal, coating Anti-mCD40L” value in assay [2] came out at 0.825. For the same molecule, in assay [3], the “ELISA signal, coating IgG” value was 0.052 and the “ELISA signal, coating PBS” value is 0.05.

B2: Secreted CD40-L1: extracellular portion of murine CD40L secreted by SYN3366, in clarified supernatant (protein)
chain: HRRLDKVEEEVNLHEDFVFIKKLKRCNKGEGSLSLLNCEEMRRQFEDLVKDITLNKEEKKENSFEMQRGDEDPQIAAHVVSEANSNAASVLQWAKKGYYTMKSNLVMLENGKQLTVKREGLYYVYTQVTFCSNREPSSQRPFIVGLWLKPSSGSERILLKAANTHSSSQLCEQQSVHLGGVFELQAGASVFVNVTEASQVIHRVGFSSFGLLKL
modifications: left off: small tags and cut ends
notes: extracellular portion of murine CD40L secreted by SYN3366, in clarified supernatant
Take B2: the “ELISA signal, coating mCD40” value in assay [1] was 0.231. Moreover, the “ELISA signal, coating Anti-mCD40L” value in assay [2] is 0.394. In assay [3], the “ELISA signal, coating IgG” value is listed as 0.052 and the “ELISA signal, coating PBS” value came out at 0.049.

B3: murine SIRPalpha: tet-inducible murine SIRPalpha secreted from an E. coli Nissle strain (protein, UniProt P97797 32-513, looked up)
Tyrosine-protein phosphatase …: KELKVTQPEKSVSVAAGDSTVLNCTLTSLLPVGPIRWYRGVGPSRLLIYSFAGEYVPRIRNVSDTTKRNNMDFSIRISNVTPADAGIYYCVKFQKGSSEPDTEIQSGGGTEVYVLAKPSPPEVSGPADRGIPDQKVNFTCKSHGFSPRNITLKWFKDGQELHPLETTVNPSGKNVSYNISSTVRVVLNSMDVNSKVICEVAHITLDRSPLRGIANLSNFIRVSPTVKVTQQSPTSMNQVNLTCRAERFYPEDLQLIWLENGNVSRNDTPKNLTKNTDGTYNYTSLFLVNSSAHREDVVFTCQVKHDQQPAITRNHTVLGFAHSSDQGSMQTFPDNNATHNWNVFIGVGVACALLVVLLMAALYLLRIKQKKAKGSTSSTRLHEPEKNAREITQVQSLIQDTNDINDITYADLNLPKEKKPAPRAPEPNNHTEYASIETGKVPRPEDTLTYADLDMVHLSRAQPAPKPEPSFSEYASVQVQRK
Take B3: the “competition of binding to CD47 on CT26 cells by recombinant SIRPalpha” value in assay [4] (FIG. 29) is “recombinant SIRPalpha can compete with the binding”. Further, in assay [4] (FIG. 30), the “competition of binding to CD47 on CT26 cells by anti-CD47 antibody” value is “the antibody can compete with the binding”.

B4: J43-scFv-V5: single-chain variable fragment based on J43 monoclonal antibody against mouse PD-1, V5 and HIS tagged, expressed in E. coli (protein)
scFv: MQLEVRLLESGGGLVKPEGSLKLSCVASGFTFSDYFMSWVRQAPGKGLEWVAHIYTKSYNYATYYSGSVKGRFTISRDDSRSMVYLQMNNLRTEDTATYYCTRDGSGYPSLDFWGQGTQVTVSSGGGGSGGGGSGGGGSYELTQPPSASVNVGETVKITCSGDQLPKYFADWFHQRSDQTILQVIYDDNKRPSGIPERISGSSSGTTATLTIRDVRAEDEGDYYCFSGYVDSDSKLYVFGSGTQLTVLGKGELNSKLEGKPIPNPLLGLDSTRTGHHHHHH
As for B4, the “Competition of PDL1 against binding of secreted scFv” value in [5] is “competed in a dose dependent manner”. The “ELISA signal at 450 nm, mPD1 coating” value in [6] (bacterial extract (1/2)) is 0.90; in assay [6] (bacterial extract), 1.41. Further, the “ELISA signal at 450 nm, IgG coating” value in assay [7] (bacterial extract (1/2)) came to 0.11; in [7] (bacterial extract), 0.13. Moreover, the “ELISA signal at 450 nm, PBS coating” value in assay [7] (bacterial extract (1/2)) was determined as 0.10; in assay [7] (bacterial extract), 0.11. Moreover, the “Binding to EL4 cells” value is “population shift” in assay [8] (purified scFv with anti-V5-FITC, two batches) and “population shift” in assay [8] (secreted scFv with anti-V5-FITC). Also, in assay [8] (secreted scFv 0, 2, 5 and 15 μL), the “Staining of EL4 cells” value was “dose-dependent staining”.

B5: Secreted anti-mCD47 scFv: anti-mCD47 scFv secreted by engineered Nissle (SYN3161), in supernatant (protein)
scFv: QVKLLQSGAALVKPGASVKMSCQASGYSFTDYWVTWVKQSHGQSLEWIGEIYPSNTVTNFNDNFKGKATLTVDKSTSTAYMELSRLTSEDSAIYYCTRIGNSGYRVGWFIYWGQGTLVTVLSGGGGSGGGGSGGGGSDTVLTQSPALAVSPGERVTISCKASESVSSHMHWYQQKPGQQPKLLIYKASNLASGVPARFSGSGSGTDFTLTIDPVEADDTATYFCQQGWNGPFTFGAGTRLELKRADAAGSGELGGSGKPIPNPLLGLDSTGSGHHHHHH
Take B5: in [9], the “ELISA signal, coating IgG” value worked out at 0.067 and the “ELISA signal, coating PBS” value turned out to be 0.053. Besides, the “ELISA signal, coating mCD47” value in assay [10] worked out at 0.527.

B6: recombinant SIRPalpha: recombinant SIRPα (Rndsystems) (protein)
chain: KELKVTQPEKSVSVAAGDSTVLNCTLTSLLPVGPIRWYRGVGPSRLLIYSFAGEYVPRIRNVSDTTKRNNMDFSIRISNVTPADAGIYYCVKFQKGSSEPDTEIQSGGGTEVYVLAKPSPPEVSGPADRGIPDQKVNFTCKSHGFSPRNITLKWFKDGQELHPLETTVNPSGKNVSYNISSTVRVVLNSMDVNSKVICEVAHITLDRSPLRGIANLSNFIRVSPTVKVTQQSPTSMNQVNLTCRAERFYPEDLQLIWLENGNVSRNDTPKNLTKNTDGTYNYTSLFLVNSSAHREDVVFTCQVKHDQQPAITRNHTVLGFAHSSDQGSMQTFPDNNATHNWN
As to B6, the “Competition with secreted SIRPalpha for binding to CD47 on CT26 cells” value in [11] was “able to compete”.

The values are drawn from patent US11471494B2, “Microorganisms programmed to produce immune modulators and anti-cancer therapeutics in tumor cells” (Synlogic Operating Company, Inc., priority 2017, dated 2022).
